Assay results published in patent US20090291083A1, “BARB4 TARGET, ANTIBODY DESIGNATED BARB4, BARB4 RELATED ANTIBODIES, AND METHODS OF MAKING AND USING SAME” (PATRYS LIMITED, priority 2008, published 2009).

Columns and labels:
[1] = system: malignant melanoma cells (CRL-1424); test: FACS analysis of tumor cell binding; settings: 20 min on ice
Protocol: (§1) To analyze tumor cell binding, pancreas cancer cells (BXPC-3), stomach cancer cells (23132/87), lung carcinoma cells (A549) and malignant melanoma cells (HTB-69 and CRL-1424) were grown to subconfluency in complete medium, detached with Trypsin/EDTA and incubated on ice for 1 h for recreation. Tumor cells were subsequently incubated on ice with BARB4 antibody (diluted in PBS containing 0.01% sodium azide), or human isotype-matched control antibody (Chrompure human IgG, Dianova, Hamburg, Germany) for 20 min on ice. Following incubation, cells were incubated with a FITC-labeled rabbit anti-human IgG antibody (1:50, Dako, Germany) for 20 min on ice, and cells were analyzed by flow cytometry (FACScan; Becton Dickinson, USA).

[2] = system: stomach cancer cells (23132/87); test: FACS analysis of tumor cell binding; settings: 20 min on ice
Protocol: as §1

[3] = system: malignant melanoma cells (HTB-69); test: FACS analysis of tumor cell binding; settings: 20 min on ice
Protocol: as §1

Healthy Tissues: Lung = test: Immunohistochemistry (IHC) with biotinylated BARB4 on healthy tissue; format: binding, human; settings: glandular, alveolar, positive/negative
Protocol: (§2) Immunohistochemistry with human IgG on human tissue naturally results in high background staining. Accordingly, BARB4 was labeled with biotin to reduce background.
(§3) BARB4 antibody and an unrelated commercial IgG control (Chrompure IgG, Dianova) where labelled with “EZ-Link Maleimide-PEO Solid Phase Biotinylation Kit” from Pierce (Cat-# 21930) and Immunohistochemistry was initiated on different tumor tissue. Parrafin embedded tissue was first deparaffinized by treatment with Xylene 1 for 5 min, Xylene 2 for 5 min, followed by 100% Ethanol 1 for 5 min, 100% Ethanol 2 for 5 min, 70 ml Methanol+500 μl H2O2 for 7 min, 90% Ethanol 1 for 3 min, 90% Ethanol 2 for 3 min, 80% Ethanol 1 for 3 min, 80% Ethanol 2 for 3 min, 70% Ethanol 1 for 3 min, 70% Ethanol 2 for 3 min, and then washed three times with distilled H2O. (1 and 2 mean that the tissues were treated 2 times with the same alcohol, one after the another, in two different tanks.) Tissue was then heated in Citric acid, pH 5,5 in a water-bath at 99.9° C. for 20 min, placed in Tris/NaCl (Tris, 0.6 g/l and NaCl 8.1 g/l, pH 7.4) for 5 min, block with 0.5% BSA in PBS for 60 min, and then washed three times with Tris/NaCl (Tris, 0.6 g/l and NaCl 8.1 g/l, pH 7.4). Primary antibody (150 μl per microscope slide) was added, or a negative control biotinylated isotype matched control human antibody (Chrompure IgG, Dianova, Germany) or a positive controlanti-cytokeratin antibody, and incubated for 30 min in a humidified chamber at 37° C. Tissue was washed three times with Tris/NaCl (Tris, 0.6 g/l and NaCl 8.1 g/l, pH 7.4). Secondary antibody: (150 […]) was subsequently added and incubated for 30 min in a humidified chamber at room temperature (for biotinylated antibodies: NeurtrAvidin 1:100 in PBS), washed three times with Tris/NaCl (Tris, 0.6 g/l and NaCl 8.1 g/l, pH7.4), placed in PBS for 10 min. Tiusse was subsequently incubated with diaminobenzidine (0.05%)-hydrogen peroxide (0.02%) (150 μl per microscope slide) (Sigma, Taufkirchen, München, Germany) for 10 min, washed three times with H2O, washed once with distilled H2O, incubated with hematoxylin/eosin for 5 min, and placed under running tap water 10-15 min. Tissue was then washed again with distilled H2O, and the slides covered with Aquatex (Merck Bioscience).

Healthy Tissues: Colon = test: as above; format: binding, human; settings: glandular, positive/negative
Protocol: as §2, §3

Healthy Tissues: Breast = test: as above; format: binding, human; settings: glandular, positive/negative
Protocol: as §2, §3

[4] = system: Healthy Tissues: Pancreas; test: as above; format: binding, human; settings: glandular, positive/negative
Protocol: as §2, §3

Healthy Tissues: Stomach = test: as above; format: binding, human; settings: glandular, positive/negative
Protocol: as §2, §3

[5] = system: Healthy Tissues: Esophagus; test: as above; format: binding, human; settings: epithelial, positive/negative
Protocol: as §2, §3

TAF 15 = test: Immunoprecipitation of cell extracts with BARB4 and Western blotting; format: binding, human; settings: MKN cell extracts
Protocol: To further validate BARB4 target protein TAF 15, BARB4 and a commercial TAF 15 antibody (anti-human TAFII p68, Santa Cruz Biotechnology, sc-81121) were analyzed for binding to BxPC-3, HEK 293, A549 and HeLa cell lines. In brief, cells were trypsinized with cell dissociation solution (Sigma C5789), resuspended in complete medium (RPMI 1640, PAA, E15-039, 10% Fetal bovine serum, PAA, A15-151 and 1% Glutamine, PAA, M11-004) and set on 2×10^5/ml. After 30 minutes on ice, cells were dispersed at 1 ml per FACS-tube and washed once with ice-cold PBS by centrifugation with 500 g and 4° C. Staining was done with BARB4 (100 ug/ml) or the commercial TAF 15 (25 μg/ml) IgG antibodies, control IgGs (IgG lambda, or mouse IgG), or without antibody in 200 μl PBS. Cells were incubated with 25 μg/ml antibody in 100 μl for 30 minutes on ice, then washed with ice cold PBS and secondary antibody (anti mouse IgG-FITC, dianova 115-095-008) was applied at a dilution of 1:50 in 200 μl per tube. After another 30 minutes of incubation in the dark, cells were washed twice with PBS and analyzed by FACS. […] BARB4 target protein TAF 15 validation was then analyzed by immunoprecipitation of MKNcell extracts with BARB4 and subsequent Western blotting with either BARB4 or anti-TAF 15 antibodies (Biomol, A300-308A; or Aviva, ARP30111_T100). […]

B1: BARB4: human IgG antibody produced by hybridoma DSMZ Deposit No. DSM ACC2876; heavy chain SEQ ID NOs:1, 3, 5, 7, light chain SEQ ID NO:9 (antibody, V domains shown)
VH: QVQLVESGGGVVQPGRSLRLSCAASGFRFTTHGMHWVRQAPGKGLEWVAVISYNGRNKYYADYVNGRFTISRDDSRDTVFLQMNSLRPEDTAMYYCAKVRGDGYGDYGYFDYWGHGTLVSVSS
VL: QSALTQPRSVSGSPGQSVTISCTGTYNYVSWYQQHPGKAPKLMIFDVSRRSSGVPDRFSGSKSGNTASLTISGLQAEDEADYYCCSYGGTYLYVFGTGTTVTVLGQ
Question: What does the source list for B1?
Answer: tumor cell binding (FACS) [1]: binds; tumor cell binding (FACS) [2]: binds; tumor cell binding (FACS) [3]: binds; Barb 4 +/− (Healthy Tissues: Lung): 0/3; Barb 4 +/− (Healthy Tissues: Colon): 0/3; Barb 4 +/− (Healthy Tissues: Breast): 0/2; Barb 4 +/− [4]: 0/2; Barb 4 +/− (Healthy Tissues: Stomach): 0/3; Barb 4 +/− [5]: 0/1; detection of TAF15 in the immunoprecipitate by Western staining with BARB4 antibody (TAF 15; FIG. 9B, assay conditions may not be optimized): did not appear to detect TAF15; immunoprecipitation of TAF 15, Western staining with anti-TAF 15 antibodies (TAF 15; FIGS. 9A and 9C): able to immunoprecipiate TAF 15
